Among the data in PMC2940942 (Journal of Molecular Biology, 2009) are binding result and Kd values, retold here.

The data set “SEC” concerns the molecule itself. The data set can be described thus: SEC. In general terms: Size exclusion chromatography separates by hydrodynamic size, large species first.
The target in data set [1] is T1, cyclophilin A (UniProt P62937 1-165). Kind of data set: NMR titration.
Data set [2] has as its target T1, cyclophilin A. Kind of data set: NMR titration. The source holds these as a separate data set.

Like-named read-outs stand apart in the source and are kept apart here.

B1: CD147^22–269 (isoform 2 without the signal peptide) (receptor)
chain: AAGTVFTTVEDLGSKILLTCSLNDSATEVTGHRWLKGGVVLKEDALPGQKTEFKVDSDDQWGEYSCVFLPEPMGTANIQLHGPPRVKAVKSSEHINEGETAMLVCKSESVPPVTDWAWYKITDSEDKALMNGSESRFFVSSSQGRSELHIENLNMEADPGQYRCNGTSSKGSDQAIITLRVRSHLAALWPFLGIVAEVLVLVTIIFIYEKRRKPEDVLDDDDAGSAPLKSSGQHQNDKGKNVRQRNSS
Take B1: in “SEC”, the binding result is given as “binds”. Take GSHLAALWPFLG [CD147^10mer peptide (CD147 residues 205–214)]: the Kd with cyclophilin A [1] stood at 4.2 ± 0.2 mM.

B2: CD147^22–214 (domain or fragment)
chain: AAGTVFTTVEDLGSKILLTCSLNDSATEVTGHRWLKGGVVLKEDALPGQKTEFKVDSDDQWGEYSCVFLPEPMGTANIQLHGPPRVKAVKSSEHINEGETAMLVCKSESVPPVTDWAWYKITDSEDKALMNGSESRFFVSSSQGRSELHIENLNMEADPGQYRCNGTSSKGSDQAIITLRVRSHLAALWPFLG
The molecule B2 gave a Kd with cyclophilin A [2] of over 1 mM.

Usually Kd stands for the constant that tells how readily two partners part at equilibrium. High values mean lower affinity, low ones higher affinity.
